Patent US20220073613A1 (XILIO DEVELOPMENT, published 2022)
Positions count from the first letter of the chain named. In names and notes the source's numbering stands.

B1: masking peptide CNLIVEGHC (peptide)
peptide: CNLIVEGHC
notes: Selected from the Ph.D.-C7C phage library; also called sterically occluded peptide
B2: Antibody 2-14 (antibody, human IgG1, kappa)
light: ACPGKGLPSCGGGSSGGSGVPLSLYSGGEIVLTQSPDFQSVTPKEKVTITCSANSALSYMYWYQQKPDQSPKLWVHGTSNLASGVPSRFSGSGSGTDFTLTINSLEAEDAATYYCHHWSNTQWTFGGGTKVEIKRTVAAPSVFIFPPSDEQLKSGTASVVCLLNNFYPREAKVQWKVDNALQSGNSQESVTEQDSKDSTYSLSSTLTLSKADYEKHKVYACEVTHQGLSSPVTKSFNRGEC
heavy: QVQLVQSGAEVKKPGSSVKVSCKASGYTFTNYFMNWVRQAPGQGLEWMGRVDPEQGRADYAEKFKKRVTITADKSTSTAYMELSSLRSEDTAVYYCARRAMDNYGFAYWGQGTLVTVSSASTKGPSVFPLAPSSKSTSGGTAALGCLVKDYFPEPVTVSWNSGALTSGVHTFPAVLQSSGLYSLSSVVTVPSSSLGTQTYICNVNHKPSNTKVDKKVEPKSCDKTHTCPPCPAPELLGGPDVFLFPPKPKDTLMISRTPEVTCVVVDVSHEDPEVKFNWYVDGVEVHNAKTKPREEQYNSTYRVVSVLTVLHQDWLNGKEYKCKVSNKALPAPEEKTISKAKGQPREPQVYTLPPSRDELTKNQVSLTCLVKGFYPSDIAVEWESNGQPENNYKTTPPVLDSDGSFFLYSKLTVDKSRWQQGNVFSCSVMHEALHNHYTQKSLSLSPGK
B3: Antibody 2-15 (antibody, human IgG1, kappa)
light: B2 light with V20G, P21S, L22G, S23G, L24S, Y25G
heavy: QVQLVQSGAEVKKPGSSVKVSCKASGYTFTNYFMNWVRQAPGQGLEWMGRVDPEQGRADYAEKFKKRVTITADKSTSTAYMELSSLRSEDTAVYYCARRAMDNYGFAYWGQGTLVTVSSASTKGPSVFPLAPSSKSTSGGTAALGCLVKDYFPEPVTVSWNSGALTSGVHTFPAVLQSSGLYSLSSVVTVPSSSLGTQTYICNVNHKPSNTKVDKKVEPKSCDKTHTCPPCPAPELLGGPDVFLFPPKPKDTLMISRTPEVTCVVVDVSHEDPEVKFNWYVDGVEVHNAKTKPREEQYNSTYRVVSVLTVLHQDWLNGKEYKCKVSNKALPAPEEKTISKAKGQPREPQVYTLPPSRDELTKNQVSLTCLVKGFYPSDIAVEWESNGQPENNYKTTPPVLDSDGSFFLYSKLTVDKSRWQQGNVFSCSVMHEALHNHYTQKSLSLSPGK
B4: Antibody 2-6 (antibody, human IgG1, kappa)
light: EIVLTQSPDFQSVTPKEKVTITCSANSALSYMYWYQQKPDQSPKLWVHGTSNLASGVPSRFSGSGSGTDFTLTINSLEAEDAATYYCHHWSNTQWTFGGGTKVEIKRTVAAPSVFIFPPSDEQLKSGTASVVCLLNNFYPREAKVQWKVDNALQSGNSQESVTEQDSKDSTYSLSSTLTLSKADYEKHKVYACEVTHQGLSSPVTKSFNRGEC
heavy: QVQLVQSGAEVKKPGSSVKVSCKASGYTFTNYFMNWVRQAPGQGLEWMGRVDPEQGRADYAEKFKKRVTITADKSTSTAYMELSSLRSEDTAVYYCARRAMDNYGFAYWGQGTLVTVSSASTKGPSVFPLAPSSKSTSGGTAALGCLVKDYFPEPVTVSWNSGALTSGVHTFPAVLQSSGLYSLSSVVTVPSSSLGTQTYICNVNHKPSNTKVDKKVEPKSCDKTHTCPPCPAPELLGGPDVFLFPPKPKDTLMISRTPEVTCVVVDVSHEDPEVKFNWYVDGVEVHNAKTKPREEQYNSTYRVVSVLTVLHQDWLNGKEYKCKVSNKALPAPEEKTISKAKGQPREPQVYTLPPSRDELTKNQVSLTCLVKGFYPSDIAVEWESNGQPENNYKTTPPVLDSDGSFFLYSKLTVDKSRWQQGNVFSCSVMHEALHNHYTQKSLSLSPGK
notes: Unmasked version of Antibody 2 with S239D and I332E in the Fc region; also called unmasked parental antibody; parental unmasked Antibody 2-6
B5: Antibody 2-7 (Activated) (antibody)
light: B4 light
heavy: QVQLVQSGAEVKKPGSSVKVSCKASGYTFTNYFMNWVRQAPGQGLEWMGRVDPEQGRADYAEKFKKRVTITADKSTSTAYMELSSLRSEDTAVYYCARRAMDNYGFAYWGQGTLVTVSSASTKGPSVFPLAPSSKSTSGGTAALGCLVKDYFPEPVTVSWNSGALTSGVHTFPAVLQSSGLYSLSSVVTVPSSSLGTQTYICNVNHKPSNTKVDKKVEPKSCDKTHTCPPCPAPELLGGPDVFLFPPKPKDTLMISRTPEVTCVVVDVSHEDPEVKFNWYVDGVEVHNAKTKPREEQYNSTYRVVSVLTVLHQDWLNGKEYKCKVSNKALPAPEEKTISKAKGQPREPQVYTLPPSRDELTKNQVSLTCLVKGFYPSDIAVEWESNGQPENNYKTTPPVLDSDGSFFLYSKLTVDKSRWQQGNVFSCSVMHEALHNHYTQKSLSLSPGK
notes: also called Antibody 2-7 with protease; not shown: remnant of the cleaved linker (part of VPLSLY and spacer SGG)
B6: Antibody 2-14, activated by protease (antibody)
light: B4 light
heavy: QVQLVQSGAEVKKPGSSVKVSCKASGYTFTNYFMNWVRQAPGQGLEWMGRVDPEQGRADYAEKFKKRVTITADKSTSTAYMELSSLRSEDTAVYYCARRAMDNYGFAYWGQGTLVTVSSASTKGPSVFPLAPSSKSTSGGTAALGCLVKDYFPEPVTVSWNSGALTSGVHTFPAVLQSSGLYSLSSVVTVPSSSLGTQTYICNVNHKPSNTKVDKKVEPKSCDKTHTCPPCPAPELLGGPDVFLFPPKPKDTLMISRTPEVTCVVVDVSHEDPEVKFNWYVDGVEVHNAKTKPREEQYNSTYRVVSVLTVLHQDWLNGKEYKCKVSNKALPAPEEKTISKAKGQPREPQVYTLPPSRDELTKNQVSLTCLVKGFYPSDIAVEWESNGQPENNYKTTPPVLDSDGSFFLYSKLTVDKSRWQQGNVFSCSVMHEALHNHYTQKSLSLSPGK
notes: also called Antibody 2-14 with protease (+); not shown: remnant of the cleaved linker (part of VPLSLY and spacer SGG)
B7: parental humanized anti-CTLA4 antibody 1 (antibody, human IgG1, kappa)
light: DIVMTQTPLSLSVTPGQPASISCRSSQSLLNSDGNTYLYWYLQKPGQSPQLLIYLVSKLGSGVPNRFSGSGSGTDFTLKISRVEAEDVGVYYCVQGTHDPWTFGGGTKVEIKRTVAAPSVFIFPPSDEQLKSGTASVVCLLNNFYPREAKVQWKVDNALQSGNSQESVTEQDSKDSTYSLSSTLTLSKADYEKHKVYACEVTHQGLSSPVTKSFNRGEC
heavy: not shown
notes: Humanized IgG1
B8: Antibody 2-16 (colon tumor) (antibody)
heavy chain: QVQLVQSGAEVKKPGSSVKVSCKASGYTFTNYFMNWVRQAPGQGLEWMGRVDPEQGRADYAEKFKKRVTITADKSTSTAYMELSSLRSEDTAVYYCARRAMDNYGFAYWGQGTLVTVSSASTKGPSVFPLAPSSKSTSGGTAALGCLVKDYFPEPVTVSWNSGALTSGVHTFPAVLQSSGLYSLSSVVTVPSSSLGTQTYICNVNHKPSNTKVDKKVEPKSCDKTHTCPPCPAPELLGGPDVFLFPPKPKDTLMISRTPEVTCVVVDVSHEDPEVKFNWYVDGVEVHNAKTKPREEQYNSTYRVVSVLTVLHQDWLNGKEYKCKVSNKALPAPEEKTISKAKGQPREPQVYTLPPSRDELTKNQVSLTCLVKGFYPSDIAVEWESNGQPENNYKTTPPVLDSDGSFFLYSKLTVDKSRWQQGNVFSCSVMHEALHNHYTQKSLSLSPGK
light chain with masking components, cleaved: SGGEIVLTQSPDFQSVTPKEKVTITCSANSALSYMYWYQQKPDQSPKLWVHGTSNLASGVPSRFSGSGSGTDFTLTINSLEAEDAATYYCHHWSNTQWTFGGGTKVEIKRTVAAPSVFIFPPSDEQLKSGTASVVCLLNNFYPREAKVQWKVDNALQSGNSQESVTEQDSKDSTYSLSSTLTLSKADYEKHKVYACEVTHQGLSSPVTKSFNRGEC
notes: also called Antibody 2-16 after culture in colon tumor conditioned media (colon2 4 sept colon tumor sample)
B9: parental anti-CTLA4 antibody (9D9), murine IgG2a (antibody)
light: DIVMTQTTLSLPVSLGDQASISCRSSQSIVHSNGNTYLEWYLQKPGQSPKLLIYKVSNRFSGVPDRFSGSGSGTDFTLKISRVEAEDLGVYYCFQGSHVPYTFGGGTKLEIKRADAAPTVSIFPPSSEQLTSGGASVVCFLNNFYPKDINVKWKIDGSERQNGVLNSWTDQDSKDSTYSMSSTLTLTKDEYERHNSYTCEATHKTSTSPIVKSFNRNEC
heavy: EAKLQESGPVLVKPGASVKMSCKASGYTFTDYYMNWVKQSHGKSLEWIGVINPYNGDTSYNQKFKGKATLTVDKSSSTAYMELNSLTSEDSAVYYCARYYGSWFAYWGQGTLITVSSAKTTAPSVYPLAPVCGDTTGSSVTLGCLVKGYFPEPVTLTWNSGSLSSGVHTFPAVLQSDLYTLSSSVTVTSSTWPSQSITCNVAHPASSTKVDKKIEPRGPTIKPCPPCKCPAPNLLGGPSVFIFPPKIKDVLMISLSPIVTCVVVDVSEDDPDVQISWFVNNVEVHTAQTQTHREDYNSTLRVVSALPIQHQDWMSGKEFKCKVNNKDLPAPIERTISKPKGSVRAPQVYVLPPPEEEMTKKQVTLTCMVTDFMPEDIYVEWTNNGKTELNYKNTEPVLDSDGSYFMYSKLRVEKKNWVERNSYSCSVVHEGLHNHHTTKSFSRTPGK
notes: Made at ATUM by HEK293 transient expression as murine IgG2a; reactive against murine CTLA4; also called 9D9.IgG2a; 9D9 IgG2a

Experiments:
[1] = molecular target: B9; assay: SPR, Biacore T200, 37 C; 9D9 coupled to CM5 chip, peptide as analyte; steady-state model
[2] = molecular target: T1, human CTLA4-Fc (R&D Systems, #7268-CT) (human, UniProt P16410 36-162); assay: CTLA4 ELISA (luminescence) after culture of the masked antibody in RPMI as control
T1 construct: Bought; not shown: Fc part
T1 sequence (P16410 36-162 limits assumed): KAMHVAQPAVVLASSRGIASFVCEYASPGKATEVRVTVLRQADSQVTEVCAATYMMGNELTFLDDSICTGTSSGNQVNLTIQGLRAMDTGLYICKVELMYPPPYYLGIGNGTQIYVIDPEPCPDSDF

[3] = molecular target: T1, human CTLA4-Fc (R&D Systems, #7268-CT); assay: ELISA, human CTLA4-Fc coated; protease -
[4] = molecular target: T2, CTLA4 coated on an MSD plate (Homo sapiens (Human), UniProt P16410 36-161); assay: binding to a CTLA4-coated MSD plate; antibody from plasma of MB49-bearing B-hCTLA4 mice 4 days after 10 mg/kg (28 % cleaved by FIG. 24D), IgG quantified by ELISA, 3-fold dilutions (Example 16)
T2 construct: not shown: The carrier of the coated recombinant CTLA4; It is probably the Fc of a CTLA4-Fc, as in the other ELISAs
T2 sequence (P16410 36-161 limits assumed): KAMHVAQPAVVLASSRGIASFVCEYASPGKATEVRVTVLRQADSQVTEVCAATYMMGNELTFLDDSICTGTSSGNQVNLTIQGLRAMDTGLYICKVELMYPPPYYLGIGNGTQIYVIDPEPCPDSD

[5] = molecular target: CTLA4 on CTLA4 expressing Jurkat cells (UniProt P16410 36-223, limits assumed); assay: cell-based or functional assay
Sequence of CTLA4 on CTLA4 expressing Jurkat cells (P16410 36-223 limits assumed): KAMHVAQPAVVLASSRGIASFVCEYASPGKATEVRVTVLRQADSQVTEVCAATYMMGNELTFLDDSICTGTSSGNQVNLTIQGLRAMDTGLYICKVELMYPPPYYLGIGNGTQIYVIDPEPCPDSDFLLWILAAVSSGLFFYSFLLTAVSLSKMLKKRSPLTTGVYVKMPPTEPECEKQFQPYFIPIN

[6] = molecular target: T1, human CTLA4-Fc (R&D Systems, #7268-CT); assay: CTLA4 ELISA (luminescence) after culture of the non-cleavable masked antibody in RPMI as control
[7] = molecular target: T1, human CTLA4-Fc (R&D Systems, #7268-CT); assay: CTLA4 ELISA (luminescence) after culture of the non-cleavable masked antibody in colon tumor conditioned media
[8] = molecular target: T1, human CTLA4-Fc (R&D Systems, #7268-CT); assay: ELISA, human CTLA4-Fc coated; protease +
[9] = molecular target: T1, human CTLA4-Fc (R&D Systems, #7268-CT); assay: low density antigen binding ELISA, human CTLA4-Fc coated; no protease
[10] = molecular target: T1, human CTLA4-Fc (R&D Systems, #7268-CT); assay: CTLA4 ELISA (luminescence) after culture of the antibody in colon tumor conditioned media
[11] = molecular target: T1, human CTLA4-Fc (R&D Systems, #7268-CT); assay: low density antigen binding ELISA, human CTLA4-Fc coated; control not exposed to protease
[12] = molecular target: T1, human CTLA4-Fc (R&D Systems, #7268-CT); assay: CTLA4 ELISA (luminescence) after culture of the antibody in RPMI as control
[13] = molecular target: T1, human CTLA4-Fc (R&D Systems, #7268-CT); assay: ELISA, human CTLA4-Fc coated; protease -; remark: listed apart in the source
[14] = molecular target: T2, CTLA4 coated on an MSD plate; assay: binding to a CTLA4-coated MSD plate; antibody from plasma of MB49-bearing B-hCTLA4 mice 4 days after 10 mg/kg, IgG quantified by ELISA, 3-fold dilutions (Example 16)
[15] = molecular target: T1, human CTLA4-Fc (R&D Systems, #7268-CT); assay: low density antigen binding ELISA, human CTLA4-Fc coated; after protease digestion
[16] = molecular target: T1, human CTLA4-Fc (R&D Systems, #7268-CT); assay: ELISA, human CTLA4-Fc coated; protease +; remark: listed apart in the source
[17] = molecular target: T1, human CTLA4-Fc (R&D Systems, #7268-CT); assay: CTLA4 ELISA (luminescence) after culture of Antibody 2-14 in colon tumor conditioned media; the text gives 100% of molecules cleaved
[18] = molecular target: T1, human CTLA4-Fc (R&D Systems, #7268-CT); assay: ELISA: plate coated with human CTLA4-Fc (R&D Systems), detection anti-huKappa-HRP, chemiluminescence; signal as fraction of the parental antibody's RLU (Example 5)
[19] = molecular target: T1, human CTLA4-Fc (R&D Systems, #7268-CT); assay: CTLA4 ELISA (luminescence) after culture of Antibody 2-16 in colon tumor conditioned media; the text gives 100% of molecules cleaved
[20] = molecular target: T3, muCTLA4hsIgG protein (Abcam) (murine, UniProt P09793 36-161, limits assumed); assay: low density antigen binding ELISA, muCTLA4hsIgG coated; average of three experiments
T3 construct: Bought; also called murine CTLA4; not shown: human IgG part (hsIgG)

[21] = molecular target: T4, murine CTLA4-Fc (R&D Systems) (murine, UniProt P09793 36-162); assay: ELISA: plate coated with murine CTLA4-Fc (R&D Systems), detection anti-muKappa-HRP, chemiluminescence (Example 3A)
T4 construct: Bought; also called muCTLA4-hsIgG (R&D Systems); not shown: human IgG Fc part (hsIgG)

B1
Kd [1]: 11000 nM

B2
EC50 (read off the curve) [2]: ~10 nM | EC50 [3]: 39.4 nM | EC50 (read off the curve) [4]: ~20 ng/mL | EC50 of FcγRIIIa (ADCC) reporter activation, without protease [5]: 33 ng/mL

B3
EC50 (read off the curve) [6]: ~7 nM | EC50 [3]: 24.3 nM | EC50 (read off the curve) [7]: ~8 nM | EC50 of FcγRIIIa (ADCC) reporter activation, after exposure to protease [5]: 10 ng/mL | EC50 of FcγRIIIa (ADCC) reporter activation, without protease [5]: 19 ng/mL | EC50 [8]: 17.3 nM

B4
EC50 [9]: 0.69 nM | EC50 [3]: 0.39 nM | EC50 (read off the curve) [10]: ~0.4 nM | EC50 [11]: 0.69 nM | EC50 (read off the curve) [12]: ~0.6 nM | EC50 [13]: 0.69 nM | EC50 (read off the curve) [14]: ~7 ng/mL | EC50 of FcγRIIIa (ADCC) reporter activation, after exposure to protease [5]: 0.0049 ng/mL | EC50 of FcγRIIIa (ADCC) reporter activation, without protease [5]: 0.008 ng/mL | EC50 [8]: 0.39 nM

B5
EC50 [15]: 0.58 nM | EC50 [16]: 0.58 nM

B6
EC50 (read off the curve) [17]: ~0.4 nM | EC50 of FcγRIIIa (ADCC) reporter activation, after exposure to protease [5]: 0.0028 ng/mL | EC50 [8]: 0.41 nM

B7
EC50 (read off the curve) [18]: ~0.7 nM

B8
EC50 (read off the curve) [19]: ~0.4 nM

B9
EC50 [20]: 0.31 nM | EC50 (read off the curve) [21]: ~0.2 nM
